Measured values: article doi:10.1101/2023.03.24.534125 (bioRxiv, 2023)

Target: T1, CRISPR array binding protein 1, Cbp1 (S. solfataricus P2, SSO0454) (S. solfataricus P2, UniProt Q97ZW9 1-150)
T1 sequence (looked up): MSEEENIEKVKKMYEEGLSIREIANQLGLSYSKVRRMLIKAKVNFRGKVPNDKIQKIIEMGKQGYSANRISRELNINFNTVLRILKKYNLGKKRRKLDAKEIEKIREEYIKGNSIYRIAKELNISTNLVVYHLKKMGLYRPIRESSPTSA
Experiment: native gel or EMSA

B1: Cren7 (S. solfataricus, SSO6901) (natural protein, UniProt Q97ZE3 1-60, looked up)
chain: MSSGKKPVKVKTPAGKEAELVPEKVWALAPKGRKGVKIGLFKDPETGKYFRHKLPDDYPI
stoichiometry N: 2
